The nanobody polyreactivity screen of Harvey et al. (2022)

Test: yeast display, Sf9 membrane polyspecificity reagent, FACS + sequencing; frameworks hold sequencing errors
Outline: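 Galactose induction of a Saccharomyces cerevisiae BJ5465 synthetic nanobody display library ran 36–48 hours. The cells were then stained for 1 hour at 4 °C with 10% biotinylated, detergent-solubilized Sf9 membrane reagent, pulled down on streptavidin microbeads and FACS-sorted into low and high (top ~1%) gates on expression and reagent-binding fluorescence. Labels for polyreactivity follow the gate of origin.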

Sequence	polyreactivity (PSR sort gate)
QVQLVESGGGLVQAGGSLRLSCAASGIIFSQYAMGWYRQAPGKERELVATITSRGASTYYADSVKGRFTISRDNAKNTVYLQMNSLKPEDTAVYYCAATVRRRYERYNYWGQGTQVTVSS	high polyreactivity
QVQLVESGGGLDQAGGSLRLSCAASGRIFNKYAMGWYRQAPGKERELVAAITRSGTRTFYADSVKGRFTISRDNAKNTVYLQMNSLKPEDTAVYYCNRDQYPFTKMDYWGQGTQVTVSS	high polyreactivity
QVQLVESGGGLVQAGGSLRLSCAASGSIFPYYAMGWYRPAPGKERELVASINQSDGTTYYADSVKGRFTISRDNAKNTVYLQMNRLKPEDTAVSYCAADTTLQDFIRYRPMGSYDSWGQGTQVTVSS	low polyreactivity
QVQLQESGGGLVQAGGSLRQSCAASGYIFQPFYMGWYRQAPGKERELVAGISVGGNTYYADSVKGRFTISRDNAKNSVFLQMNSLKPEDTAVYYCAVQFVLQDKYVYWGQGTQVTVSS	low polyreactivity
QVQLVESGGGLVQAGGSLRLSCAASGSTFHYYAMGWYRQAPGKERELVATITSSGCSTYYADSVKGRFTISRDNAKNTVYLQMNSLKPEDTAVYYCNKKSYYRDYGRYDYWGQGSQVTVSS	low polyreactivity
QVQLVESGGGLVQAGGSLRLSCAASGRTFKKYAMGWYRQAPGKVREFVARITYSAGSTYYADSVKGRFTISRDNAKNTVYLQMNSLKPEDTAVYYCARRYASSGPRWYSRHGEYDYWGQGTQVTVSS	low polyreactivity
QVQLVESGGGLVQAGGSLRLSCAASGRTFVPYAMGWYRQAPGKERELVAAISSSGGSTYYADSVKGRFTISRDNAKNTVYLQMNSLKPDDTAVYYCAAKSRKGGEYWGQGTQVTVSS	high polyreactivity
QVQLVESGGGLVQAGGSLRLSCAASGIIFRVYAMGWYRQAPGKERELVATITWSGGSTFYADSVKGRFTISRDNAKNTVYLQMNSLKPEDTAVYYCAARFLWSVFGRKGGYWGQGTQVTVSS	low polyreactivity
QVQIGESGGGLVQAGGSLRLSCAASGSTFWRYAMGWDRPATGKECELVASITGGGGSTYYADSVKGRFTISRDNAKNTVDLQMHRLKPEDNAVYSCNARRYYRVDSYDYWGQGTQVTVSS	high polyreactivity
QVQHVESGGGIVQAGGSLRLSCAASGRTFGPYAMGWYRQAPGKEWELVAVISGRGTSTYYADSVKGRFTISRDNAKNTVYLQMNSLKPEDTAVYYCKADYGSWFWGFDYWGQGTQVTVSS	low polyreactivity
QDHIVESGGGLVQAGGSLRLSCAASGSTFKLYAMGWYRQAPGKERELVAAITRSGTRTYYADSVKGRFTISRDNAKNTVYLQMNILKPEDTAVYYCAADGYRISGYDYWGQGTQVTVSS	high polyreactivity
QVQLVESGGGLVQVGGSLRLSCAASGITLSYYAMGWYRQAPGKERELVASITVSRTSTYYADSVKGRFTISRDNAKNSVYLQMNSLKPEDTAVYYCAAYAYQYRFSGYGYWGQGTQVTVSS	low polyreactivity
QVQLVESGGGLVQAGGSLRLSCAASGSIYGDYVMGWYRQAPGKERELVAAINRGGYTYYADSVKGRFTISRDNAKNTVYLQMNSLKPEDTAVYYCAAGYPSWYYGYPYDSWGQGTQVTVSS	low polyreactivity
QVQLVESGGGLVQAGGSLRLSCAASGSISWWYAMGWYRQAPGKERELVAAISSRGGSTYYADSVKGRFTISRDNAKNTVYLQMNSLKPEDTAVYYCAKYYYVGTSFYQGDYWGQGTQVTVSS	low polyreactivity
QVQLGESGGGLVQAGGSLRLSCAASGGILYWYAMGWYRQAPGKERELVAAIDGTGGSTYYADSVKGRFTISRDNAKNTVYFQMYSLRPEDTEVYYCDATRPSIVTGNVKNGYWGHGTQVTVSS	low polyreactivity
QVQLVESGGGLVQAGGSLRLSCAASGSTFQVYAMGWYRQAPGKERELVAAIRYRDGNTYYADSVKGRFTISRDNAKNTVYLQMNSLKPEETAVYYCNARLYMPSGYRRSNGYESDYWGQGTQVTVSS	high polyreactivity

Sequence	polyreactivity (PSR sort gate)
QDQHVESGRGLVQAGGSLRLSCSASGTIFAYVMGWNIQAPRKERQLVAAISRSGGSTYYADSVKGRFTISRDNAKNTVYLQMNSLKPEDTAVFYCAAVGSTVFGTRYYYWGEGTQVTVSS	high polyreactivity
QVQLVESGGGLVQAGGSLRLSCAASGSTFESYDMGWYRQAPGNERELVAAIDWSGGITYYADSVKGRFTISRDNAKNTVYLQMNSLKPEDTAVYYCNADWFVRYPKRVYWAEYDYWGQGTQVTVSS	low polyreactivity
QVQLVESGGGLVQAGGSLRLSCAPSGSIFGSYAMGWYRQAPGKERELVAAIRRSSASTYYADSVKGRFTISRDNAKNTVYLQMNSLKPEDTAVYYCATQSYSYYGYRYRYAAYDYWGQGTQVTVSS	high polyreactivity
QVQLVESGGGIVQAGGSLRLSCAASGLISRVYAMGWSRQAPGKEWELVAAISSGGSTNYADSVKGRFTISRDNAKNTVYLQMNSLKPEETAGYYCAARGRRTGGHYNYWGQGTQETVSS	low polyreactivity
QVQLVESGGGLVEAGGSLRLSCAASGRIFRKYTMGWYRQAPGKERELVAAISRNGGDTYYADSVKGRFTISRDNAKNTVYLLMNSLKPEDTAVYYCNARTPTDSTHFDYWGQGTQVSVSS	low polyreactivity
QVQLVESGGGLVQAGGSLRLSCAASGITLRRNAMGWYRQAPGKERELVARISTTGGSTYYADSVKGRFTISRDNAKNTVYLQMNSLKPEDTAVYYCAADYVQYEFEYWGQGTQVTVSS	high polyreactivity
QVQLVEYVGGLVQAGGSLRLSCAASGRIFQYYARGWYRQAPGKERELVAAINSSGGRTYYADSVKGRFTISRDNAKNTVYLQMNSLKPEDTAVYDCNAVLSTRGMDYWGQGTQVTVSS	high polyreactivity
QVQLVESGVGLVQAGGSLRLSCAASGSTFRYYGMGWYRQAPGKEMELVAAISSSGGSTYYADSLKGRFTISRDNAKNTVSLQMNSLKPEDTAVYYCAAGSRFVSSRLYYWGQGTQVTVSS	high polyreactivity
QVQLVESGGGLVQAGGSLRLSCAASGSTFGWYAMGWYRQAPGKERDFVASITSSTGSTYYADSVKGRFTISRDNAKNTVYLQMYSLKPEDTAVYYCAASYVYTFLSYLLEYDYWGQGTQVTVSS	high polyreactivity
QVQLVESGGGLVQAGGSLRLSCAASGFTFSSNAMGSYRQAPGKERELVAAISFNSTSTYYADSVKVRFTISRDNAKNTVYLQMNSLKPEDTAVYYCAADVPRVQSEPEYDYSGQGTQVTVSS	low polyreactivity
QVQLVESGGGLVQAGGSLRLSCAASGIIFGYYAMGWYRQAPGKERELVAGITYRTGSTYYADSVKGRFTISRDNAKNTVYLQMNFLKPEDTAVYYCAATQYKRKYSSWYYYWGQGTQVTVSS	high polyreactivity
QVQLVESGGGLVQAGGSLRLSCAASGRTFYYYTMGWYRQAPGKERELVAAIRGSGRTYYADSVKGRFTISRDNAKNTVYLQMNSLKPEDTAVYYCAAETGYTIRYDYWGQGTQVTVSS	high polyreactivity
QVQLVESGGGLVQAGGSLRLSCAASGSTFDAYAMGWYRQAPGKERELVAAITWSGGSTYYADSVKGRFTISRDNAKNTVYLQMNSLKPEDTAVYYCAAYYLIFYFEFDYWGQGTQVTVSS	low polyreactivity
QVQLVESGGGLVQAGGSLRLSCAASGSTFSSYGMGWYRQAPGKERELVASITIRGGSTYYADSVKGRFTISRDNAKNTVYLQMNSLKPEDTAVYYCAADVTNRGTWVIYGYYYWGQGTQVTVSS	low polyreactivity
QVQRVESGGGLVQAGGSLRLSCAASGFIFTSNARGWYRPAPGKERELVAASTKSGGSTYYADSVKGRFTISRDNAKNTVYLQMNSLKPEDTAVYYCAAYPTSRYKYEYWGQGTQVTVSS	high polyreactivity
